# The supplement of paper PMC9112550, “Optimization of the antimicrobial peptide Bac7 by deep mutational scanning” (BMC Biology, 2022)
# Test system: Escherichia coli TOP10
# Experiment: shrunken log2 fold change of peptide-encoding DNA abundance (4.5 h post-induction vs induction); higher = less antimicrobial activity (less host growth inhibition)
# Conditions: time post-induction: 4.5 h; library: site-saturation at positions 5, 18, 19, 20
# 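Further: peptides expressed intracellularly from a pBAD plasmid library in pooled LB shake-flask culture, induced with 0.3% L-arabinose, DNA abundance read by NGS, three biological replicates, DESeq2 with apeglm shrinkage.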
row,Sequence,shrunken log2 fold change
1,RRIRDRPPRLPRPRPRPSSIPRP,0.0533
2,RRIRGRPPRLPRPRPRPMVKPRP,0.00813
3,RRIRPRPPRLPRPRPRPMFDPRP,-0.231
4,RRIRCRPPRLPRPRPRPDNRPRP,-0.132
5,RRIRERPPRLPRPRPRPRTRPRP,0.12
6,RRIRKRPPRLPRPRPRPAWQPRP,0.714
7,RRIRCRPPRLPRPRPRPFPNPRP,-0.0279
8,RRIRDRPPRLPRPRPRPVTWPRP,0.0882
9,RRIRWRPPRLPRPRPRPNWNPRP,-0.0303
10,RRIRQRPPRLPRPRPRPIKWPRP,0.00957
11,RRIRHRPPRLPRPRPRPLPCPRP,-0.0645
12,RRIRRRPPRLPRPRPRPNALPRP,0.261
13,RRIRCRPPRLPRPRPRPFDEPRP,-0.0888
14,RRIRERPPRLPRPRPRPVRIPRP,-0.0343
15,RRIRCRPPRLPRPRPRPMYHPRP,-0.974
16,RRIRMRPPRLPRPRPRPGVRPRP,1.42
17,RRIRDRPPRLPRPRPRPVMLPRP,-0.0376
18,RRIRTRPPRLPRPRPRPFRLPRP,-0.365
19,RRIRNRPPRLPRPRPRPQFDPRP,0.152
20,RRIRDRPPRLPRPRPRPFRGPRP,0.0499
21,RRIRMRPPRLPRPRPRPDAHPRP,0.0846
22,RRIRCRPPRLPRPRPRPGTRPRP,0.139
23,RRIRQRPPRLPRPRPRPGFGPRP,0.245
24,RRIRGRPPRLPRPRPRPTQRPRP,0.739
25,RRIRARPPRLPRPRPRPNEPPRP,-0.115

row,Sequence,shrunken log2 fold change
1,RRIRGRPPRLPRPRPRPSSDPRP,0.439
2,RRIRARPPRLPRPRPRPGSWPRP,0.759
3,RRIRARPPRLPRPRPRPVGPPRP,0.124
4,RRIRRRPPRLPRPRPRPHNQPRP,-0.114
5,RRIRNRPPRLPRPRPRPLRRPRP,2.43
6,RRIRIRPPRLPRPRPRPAQQPRP,-0.0315
7,RRIRFRPPRLPRPRPRPFMEPRP,-0.728
8,RRIRARPPRLPRPRPRPGCEPRP,1.1
9,RRIRDRPPRLPRPRPRPTIKPRP,-0.295
10,RRIRMRPPRLPRPRPRPCDYPRP,-0.163
11,RRIRGRPPRLPRPRPRPWDYPRP,0.183
12,RRIRYRPPRLPRPRPRPTTYPRP,-0.941
13,RRIRSRPPRLPRPRPRPFRCPRP,-0.148
14,RRIRLRPPRLPRPRPRPMPQPRP,0.164
15,RRIRSRPPRLPRPRPRPTWFPRP,-0.216
16,RRIRFRPPRLPRPRPRPKFYPRP,-0.308
17,RRIRMRPPRLPRPRPRPLGKPRP,0.0958
18,RRIRRRPPRLPRPRPRPELDPRP,0.122
19,RRIRNRPPRLPRPRPRPNDIPRP,-0.418
20,RRIRNRPPRLPRPRPRPAECPRP,0.0508
21,RRIRIRPPRLPRPRPRPWLVPRP,-0.038
22,RRIRFRPPRLPRPRPRPNMWPRP,-0.485
23,RRIRARPPRLPRPRPRPKMYPRP,0.152
24,RRIRVRPPRLPRPRPRPTQKPRP,0.837
25,RRIRYRPPRLPRPRPRPKDSPRP,-0.0869

row,Sequence,shrunken log2 fold change
1,RRIRNRPPRLPRPRPRPIISPRP,0.0108
2,RRIRPRPPRLPRPRPRPQTSPRP,0.163
3,RRIRMRPPRLPRPRPRPETTPRP,3.65
4,RRIRPRPPRLPRPRPRPGIAPRP,0.218
5,RRIRPRPPRLPRPRPRPTNLPRP,-0.107
6,RRIRMRPPRLPRPRPRPSYDPRP,0.26
7,RRIRDRPPRLPRPRPRPIIYPRP,-0.313
8,RRIRYRPPRLPRPRPRPMDEPRP,-0.115
9,RRIRERPPRLPRPRPRPFWGPRP,0.0105
10,RRIRYRPPRLPRPRPRPYSCPRP,-0.344
11,RRIRERPPRLPRPRPRPDMYPRP,-0.0361
12,RRIRYRPPRLPRPRPRPHLPPRP,-0.542
13,RRIRARPPRLPRPRPRPRELPRP,0.496
14,RRIRRRPPRLPRPRPRPNRPPRP,0.198
15,RRIRARPPRLPRPRPRPGYLPRP,0.0801
16,RRIRQRPPRLPRPRPRPMCIPRP,0.0119
17,RRIRGRPPRLPRPRPRPESRPRP,0.831
18,RRIRRRPPRLPRPRPRPNVRPRP,-0.0448
19,RRIRLRPPRLPRPRPRPDWDPRP,-0.183
20,RRIRGRPPRLPRPRPRPLHFPRP,0.339
21,RRIRWRPPRLPRPRPRPGEWPRP,0.162
22,RRIRPRPPRLPRPRPRPIFFPRP,0.211
23,RRIRMRPPRLPRPRPRPHEEPRP,0.053
24,RRIRWRPPRLPRPRPRPVAGPRP,0.524
25,RRIRVRPPRLPRPRPRPGICPRP,-0.0598

row,Sequence,shrunken log2 fold change
1,RRIRPRPPRLPRPRPRPMDTPRP,-0.276
2,RRIRCRPPRLPRPRPRPPHAPRP,1.04
3,RRIRMRPPRLPRPRPRPRAAPRP,3.2
4,RRIRTRPPRLPRPRPRPCGTPRP,-0.0194
5,RRIRYRPPRLPRPRPRPFMWPRP,-0.307
6,RRIRHRPPRLPRPRPRPRTAPRP,0.264
7,RRIRHRPPRLPRPRPRPDSNPRP,-0.0814
8,RRIRTRPPRLPRPRPRPWLNPRP,-0.0665
9,RRIRPRPPRLPRPRPRPICYPRP,-0.407
10,RRIRARPPRLPRPRPRPTLFPRP,0.663
11,RRIRCRPPRLPRPRPRPLPSPRP,0.214
12,RRIRTRPPRLPRPRPRPHADPRP,0.0427
13,RRIRTRPPRLPRPRPRPDEAPRP,-0.0661
14,RRIRVRPPRLPRPRPRPFAVPRP,-0.00738
15,RRIRQRPPRLPRPRPRPMWNPRP,-0.123
16,RRIRKRPPRLPRPRPRPNSVPRP,0.0305
17,RRIRRRPPRLPRPRPRPSCRPRP,0.0338
18,RRIRNRPPRLPRPRPRPKVNPRP,0.0323
19,RRIRLRPPRLPRPRPRPEFNPRP,-0.0571
20,RRIRERPPRLPRPRPRPYGYPRP,-0.0695
21,RRIRFRPPRLPRPRPRPEQCPRP,0.285
22,RRIRYRPPRLPRPRPRPVMSPRP,-0.233
23,RRIRCRPPRLPRPRPRPTCPPRP,-0.26
24,RRIRLRPPRLPRPRPRPYERPRP,-0.148
25,RRIRKRPPRLPRPRPRPLEIPRP,0.281

row,Sequence,shrunken log2 fold change
1,RRIRGRPPRLPRPRPRPMMKPRP,0.591
2,RRIRRRPPRLPRPRPRPEEQPRP,0.231
3,RRIRCRPPRLPRPRPRPCNFPRP,-0.0198
4,RRIRLRPPRLPRPRPRPPKGPRP,0.306
5,RRIRNRPPRLPRPRPRPNRVPRP,-0.0281
6,RRIRKRPPRLPRPRPRPGISPRP,0.249
7,RRIRMRPPRLPRPRPRPYKAPRP,0.00361
8,RRIRHRPPRLPRPRPRPVKCPRP,-0.00443
9,RRIRERPPRLPRPRPRPHTKPRP,0.0349
10,RRIRHRPPRLPRPRPRPPKPPRP,0.116
11,RRIRGRPPRLPRPRPRPVQCPRP,0.102
12,RRIRTRPPRLPRPRPRPKKCPRP,-0.0193
13,RRIRPRPPRLPRPRPRPIWQPRP,0.0572
14,RRIRTRPPRLPRPRPRPICWPRP,-0.13
15,RRIRTRPPRLPRPRPRPPTGPRP,0.158
16,RRIRPRPPRLPRPRPRPHFLPRP,-0.168
17,RRIRYRPPRLPRPRPRPPHFPRP,-0.139
18,RRIRARPPRLPRPRPRPADIPRP,-0.245
19,RRIRERPPRLPRPRPRPGWIPRP,-0.105
20,RRIRSRPPRLPRPRPRPHWCPRP,-0.125
21,RRIRLRPPRLPRPRPRPEQYPRP,-0.122
22,RRIRQRPPRLPRPRPRPIGVPRP,-0.00783
23,RRIRHRPPRLPRPRPRPQDNPRP,-0.144
24,RRIRVRPPRLPRPRPRPSDMPRP,-0.519
25,RRIRLRPPRLPRPRPRPQHDPRP,-0.0854

row,Sequence,shrunken log2 fold change
1,RRIRPRPPRLPRPRPRPWFNPRP,-0.541
2,RRIRFRPPRLPRPRPRPPHRPRP,0.324
3,RRIRSRPPRLPRPRPRPMYLPRP,-0.0356
4,RRIRIRPPRLPRPRPRPGNAPRP,-0.0762
5,RRIRQRPPRLPRPRPRPLAYPRP,-0.0738
6,RRIRMRPPRLPRPRPRPAWEPRP,0.655
7,RRIRLRPPRLPRPRPRPTVHPRP,-0.131
8,RRIRGRPPRLPRPRPRPTTSPRP,1.11
9,RRIRSRPPRLPRPRPRPVDQPRP,0.034
10,RRIRTRPPRLPRPRPRPQWEPRP,0.0154
11,RRIRFRPPRLPRPRPRPVHCPRP,-0.0193
12,RRIRGRPPRLPRPRPRPGTFPRP,0.222
13,RRIRKRPPRLPRPRPRPMVWPRP,0.722
14,RRIRKRPPRLPRPRPRPFSYPRP,-0.324
15,RRIRMRPPRLPRPRPRPFQYPRP,0.00421
16,RRIRLRPPRLPRPRPRPMCDPRP,-0.481
17,RRIRFRPPRLPRPRPRPAFWPRP,0.516
18,RRIRERPPRLPRPRPRPFCTPRP,-0.304
19,RRIRTRPPRLPRPRPRPWIFPRP,-0.0415
20,RRIRNRPPRLPRPRPRPCPHPRP,-0.01
21,RRIRMRPPRLPRPRPRPHQHPRP,-0.0409
22,RRIRGRPPRLPRPRPRPEQCPRP,0.0643
23,RRIRHRPPRLPRPRPRPRFKPRP,-0.153
24,RRIRVRPPRLPRPRPRPKHYPRP,-0.459
25,RRIRMRPPRLPRPRPRPTKTPRP,0.334
